Where two headings read alike, the source gives them in different places. No end group written: not given here. *: point of attachment. Biotin = O=C1N[C@H]2[C@H](CS[C@H]2CCCCC(=O)*)N1; Ahx = NCCCCCC(=O)O
Key:
Experiment in all cases: ELISA
[1] = target: T1, HLA-DR (DRA1*01:01 / DRB1*12:01), soluble knob-into-hole Fc heterodimer (human)
[2] = target: T2, HLA-DR (DRA1*01:01 / DRB1*07:01), soluble knob-into-hole Fc heterodimer (human)
[3] = target: HLA-DR (DRA1*01:01 / DRB1*04:01), soluble knob-into-hole Fc heterodimer (human)
[4] = target: HLA-DR (DRA1*01:01 / DRB1*10:01), soluble knob-into-hole Fc heterodimer (human)
[5] = target: HLA-DR (DRA1*01:01 / DRB1*01:01), soluble knob-into-hole Fc heterodimer (human)
[6] = target: HLA-DR (DRA1*01:01 / DRB1*15:01), soluble knob-into-hole Fc heterodimer (human)
[7] = target: T2, HLA-DR (DRA1*01:01 / DRB1*07:01), …; remark: listed apart in the source
[8] = target: HLA-DR (DRA1*01:01 / DRB1*04:05), soluble knob-into-hole Fc heterodimer (human)
[9] = target: HLA-DR (DRA1*01:01 / DRB1*15:02), soluble knob-into-hole Fc heterodimer (human)
[10] = target: HLA-DR (DRA1*01:01 / DRB1*01:02), soluble knob-into-hole Fc heterodimer (human)
[11] = target: HLA-DR (DRA1*01:01 / DRB1*04:03), soluble knob-into-hole Fc heterodimer (human)
[12] = target: HLA-DR (DRA1*01:01 / DRB1*16:02), soluble knob-into-hole Fc heterodimer (human)
[13] = target: HLA-DR (DRA1*01:01 / DRB1*04:04), soluble knob-into-hole Fc heterodimer (human)
[14] = target: HLA-DR (DRA1*01:01 / DRB1*03:01), soluble knob-into-hole Fc heterodimer (human)
[15] = target: HLA-DR (DRA1*01:01 / DRB1*13:02), soluble knob-into-hole Fc heterodimer (human)
[16] = target: HLA-DR (DRA1*01:01 / DRB1*11:01), soluble knob-into-hole Fc heterodimer (human)
[17] = target: HLA-DR (DRA1*01:01 / DRB1*15:03), soluble knob-into-hole Fc heterodimer (human)
[18] = target: HLA-DR (DRA1*01:01 / DRB1*04:06), soluble knob-into-hole Fc heterodimer (human)
[19] = target: HLA-DR (DRA1*01:01 / DRB1*04:07), soluble knob-into-hole Fc heterodimer (human)
[20] = target: HLA-DR (DRA1*01:01 / DRB1*14:54), soluble knob-into-hole Fc heterodimer (human)
[21] = target: HLA-DR (DRA1*01:01 / DRB1*09:01), soluble knob-into-hole Fc heterodimer (human)
[22] = target: T1, HLA-DR (DRA1*01:01 / DRB1*12:01), …; remark: listed apart in the source
[23] = target: HLA-DR (DRA1*01:01 / DRB1*13:01), soluble knob-into-hole Fc heterodimer (human)
[24] = target: HLA-DR (DRA1*01:01 / DRB1*14:01), soluble knob-into-hole Fc heterodimer (human)
[25] = target: HLA-DR (DRA1*01:01 / DRB1*11:04), soluble knob-into-hole Fc heterodimer (human)
[26] = target: HLA-DR (DRA1*01:01 / DRB1*12:02), soluble knob-into-hole Fc heterodimer (human)

B1: SARS-CoV-2 RBD peptide RBD511-525 (peptide)
peptide: VVLSFELLHAPATVC
Kd [1]: 631 nM | Kd [2]: 263 nM

B2: SARS-CoV-2 RBD peptide RBD447-461, wildtype strain (peptide)
peptide: GNYNYLYRLFRKSNL
Kd [1]: 229 nM | Kd [2]: 163 nM

B3: biotin-labeled human Class II-associated Invariant Chain Peptide (Bio-CLIP) (peptide)
peptide: {Biotin-Ahx}-KPVSKMRMATPLLMQALPM
Kd [3]: 2.35 nM | Kd [4]: 1.27 nM | Kd [5]: 1.83 nM | Kd [6]: 2.13 nM | Kd [7]: 4.09 nM | Kd [8]: 14.9 nM | Kd [9]: 8.75 nM

B4: biotin-labeled human Class II-associated Invariant Chain Peptide (Bio-CLIP) (peptide)
peptide: KPVSKMRMATPLLMQALPM
modifications: also: biotin-labeled
Kd [10]: 1.78 nM | Kd [11]: 2.32 nM | Kd [12]: 8.67 nM | Kd [13]: 2.7 nM | Kd [14]: 15.1 nM | Kd [15]: 4130 nM | Kd [16]: 12 nM | Kd [17]: 5.31 nM | Kd [18]: 2.63 nM | Kd [19]: 2.76 nM | Kd [20]: 3.35 nM | Kd [21]: 0.576 nM | Kd [22]: 22.9 nM | Kd [23]: 315 nM | Kd [24]: 9.17 nM | Kd [25]: 4.54 nM | Kd [26]: 1.27 nM

B5: SARS-CoV-2 RBD peptide RBD419-433 (peptide)
peptide: ADYNYKLPDDFTGCV
Kd [1]: > 10000 nM | Kd [2]: > 10000 nM

B6: SARS-CoV-2 RBD peptide RBD323-337 (peptide)
peptide: TESIVRFPNITNLCP
Kd [1]: 4930 nM | Kd [2]: 435 nM

B7: SARS-CoV-2 RBD peptide RBD483-497 (peptide)
peptide: VEGFNCYFPLQSYGF
Kd [1]: 439 nM | Kd [2]: 173 nM
